In the assay the target is Invasion plasmid antigen B (IpaB) (S. flexneri). Briefly: native gel or EMSA. A general note: A gel shift assay detects complexes by their altered migration in electrophoresis.

Bounds are passed on as bounds.

The term stoichiometry N denotes a count of units in the complex or per binding partner. Substance “Invasion plasmid antigen B (IpaB) (natural protein)” returned a stoichiometry N of more than 10.

Source of the values: publication PMC3461361.
